Here are results for four molecules from patent US20130315910A1 (Xencor, published 2013).

For experiment [1], the target named is T1, human FcγRIIb on cells (transfected HEK293T cells; primary human B cells) (human, UniProt P31994 43-310).
T1 construct: whole, on cells; also called CD32b
T1 sequence (looked up): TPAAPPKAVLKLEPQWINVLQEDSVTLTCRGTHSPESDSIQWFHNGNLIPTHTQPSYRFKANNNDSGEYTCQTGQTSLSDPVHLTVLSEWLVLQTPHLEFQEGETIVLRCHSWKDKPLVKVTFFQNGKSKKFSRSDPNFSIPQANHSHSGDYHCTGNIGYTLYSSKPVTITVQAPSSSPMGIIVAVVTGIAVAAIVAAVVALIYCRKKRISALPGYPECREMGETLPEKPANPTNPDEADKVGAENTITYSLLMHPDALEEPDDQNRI
The experiment in a line: flow cytometry on FcγRIIb-transfected 293T cells [top right panel]. How it is done: (§1) In order to validate the Biacore data and evaluate receptor binding of the variants on the cell surface, binding of select antibodies to cells expressing FcγRIIb was measured. […] HEK293T cells in DMEM with 10% FBS were transfected with human FcγRIIb cDNA in pCMV6 expression vector (Origene Technologies, Rockville, Md.), cultured for 3 days, harvested, washed twice in PBS, resuspended in PBS with 0.1% BSA (PBS/BSA), and aliquoted at 2×10^5 cells per well into 96-well microtiter plates. Fc variant antibodies were serially diluted in PBS/BSA then added to the cells and incubated with mixing for 1 h at room temperature. After extensive washing with PBS/BSA, phycoerythrin (PE)-labeled anti-human-Fab-specific goat F(ab′)2 fragment was added for detection. Cells were incubated for 30 min at room temperature, washed, and resuspended in PBS/BSA. Binding was evaluated using a FACSCanto II flow cytometer (BD Biosciences, San Jose, Calif.), and the mean fluorescence intensity (MFI) was plotted as a function of antibody concentration using Graph Pad Prism software (GraphPad Software, San Diego, Calif.) from which half-maximal binding (EC50) values were determined by sigmoidal dose response modeling.

For experiment [2], the target named is T1, human FcγRIIb on cells (transfected …). Kind of experiment: flow cytometry on FcγRIIb-transfected 293T cells [middle right panel]. The procedure: as §1
Experiment [3] shares this target. The experiment in a line: flow cytometry on FcγRIIb-transfected 293T cells [middle left panel]. How it is done: as §1
The target is the same in experiment [4]. The experiment in a line: flow cytometry on FcγRIIb-transfected 293T cells [top left panel]. The procedure:
as §1

Experiment [5] has as its target T2, human FcγRI receptor protein (R&D Systems) (human, UniProt P12314 16-288).
T2 construct: also called soluble FcγRI; solFcγRI
The experiment in a line: SPR.

Experiment [6] addresses T3, human FcγRIIa (131H), His- and GST-tagged (human, UniProt P12318 34-217).
T3 construct: also called H131 FcγRIIa; HIIa; not shown: 6xHis and GST tags of the pTT5 vector
T3 sequence (looked up): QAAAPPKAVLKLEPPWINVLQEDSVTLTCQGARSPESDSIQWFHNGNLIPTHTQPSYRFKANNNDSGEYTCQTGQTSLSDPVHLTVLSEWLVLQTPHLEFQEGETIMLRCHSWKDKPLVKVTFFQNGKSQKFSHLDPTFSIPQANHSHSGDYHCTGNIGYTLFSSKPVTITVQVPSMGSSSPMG
The experiment in a line: SPR.

In experiment [7] the target is T4, human FcγRIIIa (158F), His- and GST-tagged (human, UniProt P08637 17-208).
T4 construct: also called F158 FcγRIIIa; not shown: 6xHis and GST tags of the pTT5 vector
T4 sequence (P08637 17-208): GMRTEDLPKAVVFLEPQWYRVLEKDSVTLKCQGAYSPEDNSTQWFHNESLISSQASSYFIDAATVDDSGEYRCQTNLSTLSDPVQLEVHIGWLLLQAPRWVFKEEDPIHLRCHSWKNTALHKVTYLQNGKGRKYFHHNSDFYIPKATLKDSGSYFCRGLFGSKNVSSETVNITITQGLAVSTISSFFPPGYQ
The experiment in a line: SPR.

Experiment [8] has as its target T5, human FcγRIIb receptor protein (R&D Systems) (human, UniProt P31994 46-217).
T5 construct: Bought protein injected over captured antibody in Biacore; also called CD32b
T5 sequence (looked up): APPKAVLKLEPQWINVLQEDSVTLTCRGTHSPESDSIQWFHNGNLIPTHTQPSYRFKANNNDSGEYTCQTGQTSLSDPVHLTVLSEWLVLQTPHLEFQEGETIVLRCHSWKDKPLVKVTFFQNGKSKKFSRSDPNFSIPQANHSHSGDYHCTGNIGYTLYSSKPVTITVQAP
The experiment in a line: SPR.

The target of experiment [9] is T6, human FcγRIIa (131R), His- and GST-tagged (human, UniProt P12318 34-217).
T6 construct: Expressed in HEK293T cells, purified by nickel chromatography; also called R131 FcγRIIa; not shown: 6xHis and GST tags of the pTT5 vector
T6 sequence (looked up): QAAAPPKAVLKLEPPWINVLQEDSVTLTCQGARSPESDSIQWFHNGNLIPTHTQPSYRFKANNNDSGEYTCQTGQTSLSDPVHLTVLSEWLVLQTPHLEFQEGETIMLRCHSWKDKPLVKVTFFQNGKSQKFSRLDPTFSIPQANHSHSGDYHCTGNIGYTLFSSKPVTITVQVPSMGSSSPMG
Kind of experiment: SPR.

In a further experiment the target is T7, cynoFcγRIIb (Macaca fascicularis, UniProt A0A140HDP4).
T7 construct: extracellular region, C-terminal His- and GST-tag; also called cynomolgus monkey FcγRIIb
T7 sequence (receptor extracellular region): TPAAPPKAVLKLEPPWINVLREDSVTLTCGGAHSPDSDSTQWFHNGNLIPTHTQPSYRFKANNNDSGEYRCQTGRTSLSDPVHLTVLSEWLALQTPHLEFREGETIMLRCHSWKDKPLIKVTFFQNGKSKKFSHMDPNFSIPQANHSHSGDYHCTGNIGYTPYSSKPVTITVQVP
The experiment in a line: SPR.

The target of another experiment is T8, mFcγRIIb (Mus musculus, UniProt P08101).
T8 construct: extracellular region, C-terminal His- and GST-tag; also called mouse FcγRII
T8 sequence (receptor extracellular region, looked up): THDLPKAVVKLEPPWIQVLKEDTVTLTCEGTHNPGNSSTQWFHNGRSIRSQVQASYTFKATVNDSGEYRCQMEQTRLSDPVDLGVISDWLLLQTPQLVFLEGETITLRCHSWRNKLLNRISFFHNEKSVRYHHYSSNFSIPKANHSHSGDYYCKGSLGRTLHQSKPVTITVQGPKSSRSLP
The experiment in a line: SPR.

In experiment [10] the target is T9, cynoFcγRIIIa (Macaca fascicularis, UniProt Q8SPW2).
T9 construct: extracellular region, C-terminal His- and GST-tag; also called cynomolgus monkey FcγRIIIa
T9 sequence (Q8SPW2 17-208): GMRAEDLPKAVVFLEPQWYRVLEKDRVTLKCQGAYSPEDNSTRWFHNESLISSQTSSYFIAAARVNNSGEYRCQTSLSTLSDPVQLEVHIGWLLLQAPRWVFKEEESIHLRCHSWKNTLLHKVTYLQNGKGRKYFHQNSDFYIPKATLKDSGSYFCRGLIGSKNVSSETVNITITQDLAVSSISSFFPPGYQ
The experiment in a line: SPR, Kd. How it is done:
Variants were screened for receptor affinity using Biacore™ technology, also referred to as Biacore herein, a surface plasmon resonance (SPR) based technology for studying biomolecular interactions in real time. SPR measurements were performed using a Biacore 3000 instrument (Biacore, Piscataway, N.J.). A protein A/G (Pierce Biotechnology) CM5 biosensor chip (Biacore) was generated using a standard primary amine coupling protocol. All measurements were performed using HBS-EP buffer (10 mM HEPES pH 7.4, 0.15 M NaCl, 3 mM EDTA, 0.005% vol/vol surfactant P20, Biacore). Antibodies at 20 nM or 50 nM in HBS-EP buffer were immobilized on the protein A/G surface and FcγRs were injected. After each cycle, the surface was regenerated by injecting glycine buffer (10 mM, pH 1.5). Data were processed by zeroing time and response before the injection of FcγR and by subtracting appropriate nonspecific signals (response of reference channel and injection of running buffer). Kinetic analyses were performed by global fitting of binding data with a 1:1 Langmuir binding model using BIAevaluation software (Biacore).
Variant antibodies were tested for their affinity to mouse or cynologous monkey FcγRs using Biacore SPR as described above. Specifically, antibodies were first immobilized on a protein A/G chip to high density, and then followed by injections of the extracellular domain of the mouse or cynologous monkey FcγR of interest. Both association and dissociation phases were tracked in real time using the Biacore technology.

In experiment [11] the target is T10, human FcγRIIIa (158V), His- and GST-tagged (human, UniProt P08637 17-208).
T10 construct: also called V158 FcγRIIIa; VIIIa; not shown: 6xHis and GST tags of the pTT5 vector
T10 sequence (P08637 17-208 F176V): as the sequence (P08637 17-208) above, with F160V counted along it
Kind of experiment: SPR.

Experiment [12] addresses T9, cynoFcγRIIIa. The experiment in a line: SPR.
For another experiment, the target named is T11, mFcγRIV.
T11 construct: also called mouse FcγRIV; not shown: C-terminal His and GST tags (named only on our card)
T11 chain: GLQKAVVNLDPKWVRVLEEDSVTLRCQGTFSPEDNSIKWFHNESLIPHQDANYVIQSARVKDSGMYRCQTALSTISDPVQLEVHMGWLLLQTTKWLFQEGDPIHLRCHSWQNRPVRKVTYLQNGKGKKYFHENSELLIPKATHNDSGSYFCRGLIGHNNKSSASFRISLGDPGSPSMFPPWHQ
Kind of experiment: SPR.

Experiment [13] concerns the target T5, human FcγRIIb receptor protein (R&D …). The experiment in a line: Biacore SPR, Kd(native IgG1)/Kd(variant).
Experiment [14] has the same target. Kind of experiment: Biacore SPR, antibody captured on protein A/G chip, FcγR injected.
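Wherever Fold vs WT IgG1 (off-rate) is given: fold improvement over WT IgG1 so higher means slower dissociation than WT.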

T2 sequence (P12314 16-288 limits assumed): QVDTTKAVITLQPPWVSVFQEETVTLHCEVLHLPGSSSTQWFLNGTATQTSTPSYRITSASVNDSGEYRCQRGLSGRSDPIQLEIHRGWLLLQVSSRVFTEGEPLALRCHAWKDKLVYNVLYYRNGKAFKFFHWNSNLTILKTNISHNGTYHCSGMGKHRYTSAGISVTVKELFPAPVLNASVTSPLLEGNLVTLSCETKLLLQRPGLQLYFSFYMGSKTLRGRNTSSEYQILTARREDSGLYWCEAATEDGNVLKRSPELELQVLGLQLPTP

B1: S239D/I332E (antibody, human IgG1, kappa)
heavy: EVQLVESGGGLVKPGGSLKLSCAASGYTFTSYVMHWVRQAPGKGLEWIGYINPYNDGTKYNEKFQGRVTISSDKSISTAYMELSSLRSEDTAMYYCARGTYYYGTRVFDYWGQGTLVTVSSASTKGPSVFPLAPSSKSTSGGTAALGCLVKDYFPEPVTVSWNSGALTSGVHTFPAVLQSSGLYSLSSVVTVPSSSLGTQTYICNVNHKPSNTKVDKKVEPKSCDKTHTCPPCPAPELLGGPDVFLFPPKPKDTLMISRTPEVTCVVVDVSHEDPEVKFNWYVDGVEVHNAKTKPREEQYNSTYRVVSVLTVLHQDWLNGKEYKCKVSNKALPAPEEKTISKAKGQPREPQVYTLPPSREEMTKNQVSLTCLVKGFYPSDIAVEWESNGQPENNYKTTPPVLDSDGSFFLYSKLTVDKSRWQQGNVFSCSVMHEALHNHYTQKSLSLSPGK
light: DIVMTQSPATLSLSPGERATLSCRSSKSLQNVNGNTYLYWFQQKPGQSPQLLIYRMSNLNSGVPDRFSGSGSGTEFTLTISSLEPEDFAVYYCMQHLEYPITFGAGTKLEIKRTVAAPSVFIFPPSDEQLKSGTASVVCLLNNFYPREAKVQWKVDNALQSGNSQESVTEQDSKDSTYSLSSTLTLSKADYEKHKVYACEVTHQGLSSPVTKSFNRGEC
notes: HuAM4G7 anti-CD19 IgG1 (m1) with these Fc substitutions, EU index; copies: 2 + 2
Regarding B1, the “EC50 (read off the curve)” value in [1] is ~0.02 µg/mL; in experiment [2], ~0.03 µg/mL; in experiment [3], ~0.03 µg/mL; in experiment [4] it was ~0.02 µg/mL. Moreover, the Kd came out at 0.0374 nM in experiment [5]; 163 nM in experiment [6]; 28.2 nM in [7]; 101 nM in experiment [8]; 68.6 nM in experiment [9].

B2: S267E/L328Y (antibody, human IgG1, kappa)
heavy: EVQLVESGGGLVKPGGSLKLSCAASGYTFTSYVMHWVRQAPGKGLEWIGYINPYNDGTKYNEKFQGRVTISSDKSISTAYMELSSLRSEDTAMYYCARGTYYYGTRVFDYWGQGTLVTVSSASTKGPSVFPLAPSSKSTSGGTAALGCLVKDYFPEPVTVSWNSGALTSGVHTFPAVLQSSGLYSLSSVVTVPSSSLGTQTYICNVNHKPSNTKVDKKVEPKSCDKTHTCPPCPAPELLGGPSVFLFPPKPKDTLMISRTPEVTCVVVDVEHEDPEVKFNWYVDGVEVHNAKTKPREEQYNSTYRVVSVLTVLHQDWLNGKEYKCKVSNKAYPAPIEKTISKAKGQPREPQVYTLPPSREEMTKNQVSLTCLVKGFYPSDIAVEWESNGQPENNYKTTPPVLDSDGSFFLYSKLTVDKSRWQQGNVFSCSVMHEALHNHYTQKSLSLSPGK
light: DIVMTQSPATLSLSPGERATLSCRSSKSLQNVNGNTYLYWFQQKPGQSPQLLIYRMSNLNSGVPDRFSGSGSGTEFTLTISSLEPEDFAVYYCMQHLEYPITFGAGTKLEIKRTVAAPSVFIFPPSDEQLKSGTASVVCLLNNFYPREAKVQWKVDNALQSGNSQESVTEQDSKDSTYSLSSTLTLSKADYEKHKVYACEVTHQGLSSPVTKSFNRGEC
notes: as for B1
As for B2, the “Fold vs WT IgG1 (off-rate)” value was found to be 1.93 fold with cynoFcγRIIb and 7.92 fold with mFcγRIIb. Moreover, the binding result (with cynoFcγRIIIa [10]; in [11]) was “no binding” throughout. In addition, the “Fold vs WT IgG1” value stood at 0.224 fold in experiment [5], 1.34 fold in [6], 43.1 fold in [8] and 122 fold in experiment [9]. Besides, the Kd in experiment [5] turned out to be 1.47 nM; in [6], 481 nM; in [8], 34.1 nM; in experiment [9], 7.06 nM.

B3: anti-CD19 antibody HuAM4G7 IgG1 S267A (antibody)
heavy: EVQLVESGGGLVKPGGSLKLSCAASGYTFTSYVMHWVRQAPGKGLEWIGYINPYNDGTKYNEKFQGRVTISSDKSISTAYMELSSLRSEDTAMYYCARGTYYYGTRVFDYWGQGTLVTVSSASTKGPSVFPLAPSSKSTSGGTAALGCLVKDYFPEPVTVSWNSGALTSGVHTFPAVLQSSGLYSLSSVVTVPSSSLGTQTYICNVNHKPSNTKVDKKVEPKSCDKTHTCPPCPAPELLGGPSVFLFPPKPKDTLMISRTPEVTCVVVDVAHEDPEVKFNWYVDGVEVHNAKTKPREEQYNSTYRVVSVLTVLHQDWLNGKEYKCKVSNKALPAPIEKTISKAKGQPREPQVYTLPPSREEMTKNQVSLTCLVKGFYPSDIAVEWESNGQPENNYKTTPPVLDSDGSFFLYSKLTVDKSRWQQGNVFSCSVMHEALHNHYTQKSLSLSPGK
light: DIVMTQSPATLSLSPGERATLSCRSSKSLQNVNGNTYLYWFQQKPGQSPQLLIYRMSNLNSGVPDRFSGSGSGTEFTLTISSLEPEDFAVYYCMQHLEYPITFGAGTKLEIKRTVAAPSVFIFPPSDEQLKSGTASVVCLLNNFYPREAKVQWKVDNALQSGNSQESVTEQDSKDSTYSLSSTLTLSKADYEKHKVYACEVTHQGLSSPVTKSFNRGEC
notes: Positions in EU numbering; copies: 2 + 2
Consider B3, for which the “Fold vs WT IgG1 (off-rate)” value with cynoFcγRIIb came to 1.05 fold; in the experiment with cynoFcγRIIIa [12], 1.27 fold; with mFcγRIV it was 1.53 fold; with mFcγRIIb, 3.02 fold. The “fold affinity relative to native IgG1” value in experiment [13] came to 3.6 fold. For the same molecule, the dissociation constant (Kd) in experiment [14] turned out to be 408 nM; in experiment [5], 0.287 nM; in experiment [6] it was 530 nM; in experiment [11] it was 201 nM; in experiment [9] it was 200 nM. The “Fold vs WT IgG1” value in experiment [5] stood at 1.15 fold; in [6] it was 1.22 fold; in experiment [11], 0.952 fold; in experiment [9], 4.29 fold.

B4: S267D (antibody, human IgG1, kappa)
heavy: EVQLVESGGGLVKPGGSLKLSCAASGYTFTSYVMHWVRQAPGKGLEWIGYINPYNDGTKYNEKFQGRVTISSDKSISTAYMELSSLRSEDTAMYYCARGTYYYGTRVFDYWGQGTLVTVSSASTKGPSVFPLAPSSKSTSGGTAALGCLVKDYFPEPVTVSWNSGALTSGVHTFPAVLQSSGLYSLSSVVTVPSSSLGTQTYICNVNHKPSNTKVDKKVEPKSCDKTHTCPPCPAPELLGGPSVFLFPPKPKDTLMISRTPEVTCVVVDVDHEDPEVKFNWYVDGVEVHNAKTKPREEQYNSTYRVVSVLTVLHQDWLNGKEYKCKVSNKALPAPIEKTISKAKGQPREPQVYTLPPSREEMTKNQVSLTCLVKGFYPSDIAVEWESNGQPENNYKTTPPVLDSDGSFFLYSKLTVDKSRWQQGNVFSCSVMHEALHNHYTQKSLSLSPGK
light: DIVMTQSPATLSLSPGERATLSCRSSKSLQNVNGNTYLYWFQQKPGQSPQLLIYRMSNLNSGVPDRFSGSGSGTEFTLTISSLEPEDFAVYYCMQHLEYPITFGAGTKLEIKRTVAAPSVFIFPPSDEQLKSGTASVVCLLNNFYPREAKVQWKVDNALQSGNSQESVTEQDSKDSTYSLSSTLTLSKADYEKHKVYACEVTHQGLSSPVTKSFNRGEC
notes: HuAM4G7 anti-CD19 IgG1 (m1) with this Fc substitution, EU index; copies: 2 + 2
As to B4, the “Fold vs WT IgG1 (off-rate)” value with cynoFcγRIIb was found to be 1.03 fold; with cynoFcγRIIIa [12], 1.27 fold; with mFcγRIV it was 1.27 fold; with mFcγRIIb, 1.95 fold. The “EC50 (read off the curve)” value in [4] was ~0.03 µg/mL. For the same molecule, the “Fold vs WT IgG1” value in experiment [5] was found to be 2.11 fold; in experiment [6] it was 0.93 fold; in experiment [11] it was 1.51 fold; in experiment [8], 4.45 fold; in experiment [9] it was 8.99 fold. The Kd in experiment [5] amounted to 0.156 nM; in experiment [6], 695 nM; in experiment [11], 127 nM; in [8], 330 nM; in experiment [9], 95.5 nM.
